Assay results published in the supplement of paper PMC9170038.

Test system: MS2 coat protein
Assay: apparent KD of MS2 coat protein; designed switch direction (-1 OFF switch, 1 ON switch): -1; higher = weaker reporter binding
Method in brief: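 The apparent KD reported per design is the median over clusters of curve fits to normalised cluster fluorescence. The RNA switches were transcribed on Illumina chips by stalled E. coli RNA polymerase. SNAP-549-labelled MS2 coat protein was titrated from 0.7 or 1.5 nM, doubling up to 3 µM, in Tris-HCl pH 7.5 buffer containing KCl, MgCl2, BSA, DTT, tRNA and Tween-20, with no input, 200 uM small-molecule ligand, or an oligonucleotide input.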

[1] = Eterna round: R95, input ligand: FMN 200 uM
[2] = Eterna round: R95, input ligand: microRNA oligo, concentration not stated
[3] = Eterna round: R95, input ligand: none
[4] = input ligand: microRNA oligo, concentration not stated

Sequence	apparent KD of MS2 coat protein [1] [nM]	apparent KD of MS2 coat protein [2] [nM]	apparent KD of MS2 coat protein [3] [nM]	apparent KD of MS2 coat protein (input ligand: FMN 200 uM) [nM]	apparent KD of MS2 coat protein (input ligand: none) [nM]	apparent KD of MS2 coat protein [4] [nM]
CCAUGUUAGCAGGAUAUGCAAUAAAUCUUUUAUGCAGAAGGGCUUACAUGAGGAUCACCCAUGUAUUAAGUCAA [JR_E6_Sub078] (puzzle: Exclusion 6)	118	36	49.9			
CCCACGUCAGGAUAUCUAAAGGUCCGAAAUAACGGGACUGCAGAGAAGGGACAUGAGGAUCACCCAUGUCCUCG [EX4 C.21] (Eterna round: R97, puzzle: Exclusion 4)				27	18	
GUGGCGGAUGCGAACAUGAGGAUCACCCAUGUACAGUCCCUACAGGAUAUCCGCAGUGCCUAGCAGGAGAAGGGUAGGAGCACA [Eternabot solution 40] (Eterna round: R96, puzzle: Exclusion NG 3)				16	17.9	10.7
GUGUAGUCAGGAUAUACAUAGGAAGAGAAGAUAAGAUAAGCACAUGAGGAUCACCCAUGUAGAAGGGACAGUGU [Excluse me!! 2 - Jieux - Exclusion 2] (puzzle: Exclusion 2)	77.6	66.1	61			
ACUGAACAUGAGGAUCACCCAUGUAAGGAUAUGCCACACGGGCUACAUAGCCAUCAAAGUAGAAGGUGCUGGGA [Eternabot (Original) Solution 15] (Eterna round: R97, puzzle: Exclusion 1)				20.3	26.2	
CGGUGCUGAGGAUAUACAUGAGGAUCACCCAUGUGUUCCGGCUAGCUGACUGGCGCUUGUAGAAGGCAGUACUG [JL-ex3-2.11 Brourd mod] (puzzle: Exclusion 3)		16.3				
AAUGAGCGAGGAUAUGCAACUGUAUGACCUACGUGUGCCAGACAUGAGGAUCACCCAUGUAGAAGGUGCUUUCC [Israte] (puzzle: Exclusion 2)		45.4				
UCCUUAGCGGUCAGGAUAUACACCCGUUUCUCCUUGUAGAAGGGACAUGAGGAUCACCCAUGUACAGUACAUCU [alecazam64] (Eterna round: R97, puzzle: Brourd's mod of Exclusion 4)				18.6	17.6	
CAAGCUAUUGUAGCAACUAACAUGAGGAUCACCCAUGUAGGCAUAACUUACCUAGCUCGUUUAUACAAAUCAAUUGU [Eternabot (L2) Solution 11] (Eterna round: R97, puzzle: Sensor, turn-off variant 1)				13.1	17.6	
CAUACAGUAGUCAGGAUAUUGGAAGAGACACGGAACGAGAAGGGACAUGAGGAUCACCCAUGUAUACUGUAAAG [EX-4 Malc #4] (puzzle: Brourd's mod of Exclusion 4)		23.8				
UGCGGUUGAGGAUAUACGUAGAAGUAGAUUCAUGUAAAACUACAUGAGGAUCACCCAUGUAGAAGGCAAUCGCU [Mat - Exclusion 2 - JL Mod - D40] (Eterna round: R97, puzzle: Exclusion 2)				193	21.5	
AGUCGGCGAGGAUAUACAUGAGGAUCACCCAUGUGAUAUAGUGCACGCGUACGUGUACGUAGAAGGCGCUGACA [Mat - Exclusion 3 - Mod of JL D93] (puzzle: Exclusion 3)		11.5				
UAAAGUGAGUCCUCGCAGCAGCGUAGGGCGGUGCUAGCUACAUGAGGAUCACCCAUGUUUUCGCUCGUCCAGCACCU [Ceaorreti] (Eterna round: R96, puzzle: Sensor v2, turn-off variant 2)				89.2	101	59.2
AACAGUCUGGAGGAUAUGCUGGAUUAAAAUCUGGCAGAAGGCUGGACAUGAGGAUCACCCAUGUAAAUACUACC [Omei Ex6 A2a] (Eterna round: R97, puzzle: Exclusion 6)				73.1	24.8	
AUUAUAUAGUUAGGAUAUUGAUUAUUAUUUUAACAUGAGGAUCACCCAUGUAGCCUUAUGUAUAACAAGAAGGAACAUUUAUUA [Title] (Eterna round: R96, puzzle: Exclusion NG 2)						97.9
AUAAUUUAAGGAUAUACGUGGCGAGCCAGAUAGCUGGGUCUACAUGAGGAUCACCCAUGUAGAAGGUAAGGAUU [Eternabot (L1) Solution 23] (Eterna round: R97, puzzle: Exclusion 2)				17.8	18.6	
UAAGCUCUGUCAGGAUAUCCCUGUAAACGCAACGGAGAAGGGACAUGAGGAUCACCCAUGUGCGGGCCCAACGCGCUCGGGUCC [Dilacesole] (Eterna round: R96, puzzle: Exclusion NG 1)				63.6	35.1	23.6

Sequence	apparent KD of MS2 coat protein [1] [nM]	apparent KD of MS2 coat protein [2] [nM]	apparent KD of MS2 coat protein [3] [nM]	apparent KD of MS2 coat protein (input ligand: FMN 200 uM) [nM]	apparent KD of MS2 coat protein (input ligand: none) [nM]	apparent KD of MS2 coat protein [4] [nM]
UUGUUAUAUGAAGGAUAUACUUAACAUGAGGAUCACCCAUGUGGUGUUGUGAGUGAGUGAGUUUAGUAGAAGGUCAAGUAUUUU [JMF's solution 52] (Eterna round: R96, puzzle: Exclusion NG 2)				509	377	368
CGUACUAACACGAAAGUGUUAGUACAAUAAGCUUGUGAAACAUGAGGAUCACCCAUGUCCUCAUAAGCUCGUCUUAU [salish99_TOv2_r3_007] (puzzle: Sensor v3, turn-off variant 2)	17.1	967	15.7			
AGAGUGCUGCGAGGAUAUACAUGAGGAUCACCCAUGUUAUCGUGUGAGGCUUUGCCUCACACGAAGUAGAAGGCGCAGUACUCA [Mat - Exclusion NG 2 - Mod of JL - D100] (Eterna round: R96, puzzle: Exclusion NG 2)				13.4	14.2	7.69
GCAGAGCAAGGAUAUACAUGAGGAUCACCCAUGUAAUCUGAAAGGAUUGUAUGGCUCUGUAGAAGGUGCGAAAA [Ederxein] (Eterna round: R97, puzzle: Exclusion 3)				41.9	22.7	
AAGAAGUGAGGAUAUGGCCGGGUCCCUGGGUUUGGACCCGGCCAGAAGGCACAUGAGGAUCACCCAUGUAAGAA [Excls4-X] (puzzle: Exclusion 4)		21.1				
AACCUGAGGCUUUGCUUUAGGUGUACAUGAGGAUCACCCAUGUAGGAUAUGGUAGGCUUUGCUUACCAGAAGGACAUUGGCGUU [JL ENG3 1.14] (Eterna round: R96, puzzle: Exclusion NG 3)				388	97.3	66.2
UGAGUGCUGCGAGGAUAUACAUGAGGAUCACCCAUGUAAACGUGUGAGGCUUUGCCUCACACGAUGUAGAAGGCGCAGUACUCU [JL ENG2 1.05] (Eterna round: R96, puzzle: Exclusion NG 2)				18.4	14	9.25
CUUUUGUGAGGAUAUCAGUGGUAAAACAAUAGUAUUACUACUGAGAAGGCACAUGAGGAUCACCCAUGUUCCUC [Mat - Exclusion 4 - Mod of Omei - D85] (puzzle: Exclusion 4)		42.7				
UUAAAUCAUGUAGGAUAUGCGUGGCGAAGCUAUGCAGAAGGACAUGAGGAUCACCCAUGUGCUUCCGUCUGAGUACAGACGGUA [Mat - Exclusion NG 1 - Mod of JL - D11] (Eterna round: R96, puzzle: Exclusion NG 1)				221	101	106
GAAAAGGUAGGAUAUACGAAAAAAAAGGGUAGAAAAAAAAGACAUGAGGAUCACCCAUGUAGAAGGACCAAAAG [salish99_ex2_r3_061] (puzzle: Exclusion 2)	76.6	36.5	27.1			
GCAGCAUAGUUUACUAACUGUUACAUGAGGAUCACCCAUGUCUAGGAUAUGGUCUGGAUUACAGGCCAGAAGGAGACAAGCUGC [Eli exng3 - 034] (Eterna round: R96, puzzle: Exclusion NG 3)				14.1	16.6	12.1
UAGUUAUUCACAGGAUAUCGCCUCUUAUUACAUGAGGAUCACCCAUGUUUACUUAGUUACAUGUUCGAGAAGGGUGUAGCCGUU [JR_ExcNG2_Sub044] (Eterna round: R96, puzzle: Exclusion NG 2)						301
CUGAACCCGGUAGGAUAUAUUGUGGGCGGGCGUGGAACGACAUGAGGAUCACCCAUGUGAUUGAGGUAGAAGGGCCGAGAGGUU [Excl-NG2-LRO17] (Eterna round: R96, puzzle: Exclusion NG 2)				42.6	42.8	31
AGCGAGGCAGGAUAUACAUGAGGAUCACCCAUGUGCUUGCAUGGCGUGGGACGUCGAGGUAGAAGGGCCAUGCC [EX3 #70] (Eterna round: R97, puzzle: Exclusion 3)				87.3	52.1	
AAUAACAGAGGAUAUACUGUUUUAUGUAUUUAUUAUUUUAAACAUGAGGAUCACCCAUGUAGAAGGCUGAGUAA [JMF 28] (puzzle: Exclusion 2)		22.6				
CGUGCGUAUGUGAGGAUAUGCUGGUCCUUGGAUCGGCAGAAGGCACAUGAGGAUCACCCAUGUGGUGUCGUUCU [salish99_Bmod_ex4_092] (puzzle: Brourd's mod of Exclusion 4)		129				
UUUAAUUUUUUUUUUUUACAAGCUUUUUGCUCGUCUUAUACAUGAGGAUCACCCAUGUGGGUAGAGAGUAAAUUAUC [JMF 59] (puzzle: Sensor v3, turn-off variant 2)	16.7	80.6	16.1			
